Results: paper PMC12274814, “ATPase-dependent duplex nucleic acid unwinding by SARS-CoV-2 nsP13 relies on facile binding and translocation along single-stranded nucleic acid”

Key:
Conditions in all cases: protein: recombinant; chain copies: 2; single strand 25 nt
nsP13 helicase [1] = target: T1, nsP13 helicase (SARS-CoV-2, UniProt P0DTD1 5325-5925); experiment: competition, 500 nM ssDNA-F, 30 nM nsP13; 3 mM ATP, 5 mM Mg2+; K1/2 of TrapDNA
nsP13 helicase [2] = target: T1, nsP13 helicase; experiment: competition, 500 nM ssDNA-F, 30 nM nsP13; 3 mM ATPgS, 5 mM Mg2+; K1/2 of TrapDNA
nsP13 helicase [3] = target: T1, nsP13 helicase; experiment: competition, 500 nM ssDNA-F, 30 nM nsP13

TCTAATGTAGTATAGTAATCCGCTC (ssDNA) [TrapDNA]
IC50 (nsP13 helicase [1]): 950 nM
IC50 (nsP13 helicase [2]): 3100 nM
IC50 (nsP13 helicase [3]): 460 nM
